Two molecules from US20200079868A1 (UNIVERSITY OF SOUTHERN CALIFORNIA, published 2020) can be followed below.

This assay deals with T1, CD20 (B-lymphocyte antigen CD20) on CD20+ human lymphoma cells (Raji, SU-DHL-7) (human, UniProt P11836 1-297).
T1 sequence (looked up): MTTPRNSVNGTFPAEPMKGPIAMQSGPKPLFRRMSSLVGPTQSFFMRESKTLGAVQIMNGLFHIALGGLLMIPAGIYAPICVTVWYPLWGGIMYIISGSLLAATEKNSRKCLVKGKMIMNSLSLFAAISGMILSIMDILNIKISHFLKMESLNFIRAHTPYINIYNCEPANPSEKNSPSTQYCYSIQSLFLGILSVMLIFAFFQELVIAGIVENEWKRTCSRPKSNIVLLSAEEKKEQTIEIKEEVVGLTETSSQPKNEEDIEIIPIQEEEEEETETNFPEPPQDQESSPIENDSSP
The experiment in a line: cell-based or functional assay.

B1: Rituximab (antibody, V domains shown)
VH: QVQLQQPGAELVKPGASVKMSCKASGYTFTSYNMHWVKQTPGRGLEWIGAIYPGNGDTSYNQKFKGKATLTADKSSSTAYMQLSSLTSEDSAVYYCARSTYYGGDWYFNVWGAGTTVTVSA
VL: QIVLSQSPAILSASPGEKVTMTCRASSSVSYIHWFQQKPGSSPKPWIYATSNLASGVPVRFSGSGSGTSYSLTISRVEAEDAATYYCQQWTSNPPTFGGGTKLEIK
Regarding B1, the “IC50, cell viability (MTS/PMS), SU-DHL-7 cells” value amounted to 4 µM.

B2: scFv A192 (anti-CD20 scFv-G(VPGAG)192Y fusion) (scFv)
scFv: QVQLQQPGAELVKPGASVKMSCKASGYTFTSYNMHWVKQTPGRGLEWIGAIYPGNGDTSYNQKFKGKATLTADKSSSTAYMQLSSLTSEDSAVYYCARSTYYGGDWYFNVWGAGTTVTVSAGGGGSGGGGSGGGGSQIVLSQSPAILSASPGEKVTMTCRASSSVSYIHWFQQKPGSSPKPWIYATSNLASGVPVRFSGSGSGTSYSLTISRVEAEDAATYYCQQWTSNPPTFGGGTKLEIKRTGVPGAGVPGAGVPGAGVPGAGVPGAGVPGAGVPGAGVPGAGVPGAGVPGAGVPGAGVPGAGVPGAGVPGAGVPGAGVPGAGVPGAGVPGAGVPGAGVPGAGVPGAGVPGAGVPGAGVPGAGVPGAGVPGAGVPGAGVPGAGVPGAGVPGAGVPGAGVPGAGVPGAGVPGAGVPGAGVPGAGVPGAGVPGAGVPGAGVPGAGVPGAGVPGAGVPGAGVPGAGVPGAGVPGAGVPGAGVPGAGVPGAGVPGAGVPGAGVPGAGVPGAGVPGAGVPGAGVPGAGVPGAGVPGAGVPGAGVPGAGVPGAGVPGAGVPGAGVPGAGVPGAGVPGAGVPGAGVPGAGVPGAGVPGAGVPGAGVPGAGVPGAGVPGAGVPGAGVPGAGVPGAGVPGAGVPGAGVPGAGVPGAGVPGAGVPGAGVPGAGVPGAGVPGAGVPGAGVPGAGVPGAGVPGAGVPGAGVPGAGVPGAGVPGAGVPGAGVPGAGVPGAGVPGAGVPGAGVPGAGVPGAGVPGAGVPGAGVPGAGVPGAGVPGAGVPGAGVPGAGVPGAGVPGAGVPGAGVPGAGVPGAGVPGAGVPGAGVPGAGVPGAGVPGAGVPGAGVPGAGVPGAGVPGAGVPGAGVPGAGVPGAGVPGAGVPGAGVPGAGVPGAGVPGAGVPGAGVPGAGVPGAGVPGAGVPGAGVPGAGVPGAGVPGAGVPGAGVPGAGVPGAGVPGAGVPGAGVPGAGVPGAGVPGAGVPGAGVPGAGVPGAGVPGAGVPGAGVPGAGVPGAGVPGAGVPGAGVPGAGVPGAGVPGAGVPGAGVPGAGVPGAGVPGAGVPGAGVPGAGVPGAGVPGAGVPGAGVPGAGVPGAGVPGAGVPGAGVPGAGVPGAGVPGAGVPGAGVPGAGVPGAGVPGAGVPGAGVPGAGVPGAGVPGAGVPGAGVPGAGVPGAGVPGAGVPGAGVPGAGVPGAGVPGAGVPGAGVPGAGY
modifications: rhodamine (RHD) labeled in the confocal binding assays; site of the label not stated
Turning to B2, the “IC50, cell viability (MTS/PMS), Raji cells” value is 32 µM; the “IC50, cell viability (MTS/PMS), SU-DHL-7 cells” value came out at 41 µM; the “IC50, cell viability, SU-DHL-7 cells (figure legend; differs from the text)” value was determined as 4 µM.
